Paper PMC4026020

What was measured:
[1] = target: T1, MBP-AtTZF1 TZF (Arabidopsis thaliana, UniProt O82307 129-195); experiment: EMSA
T1 sequence: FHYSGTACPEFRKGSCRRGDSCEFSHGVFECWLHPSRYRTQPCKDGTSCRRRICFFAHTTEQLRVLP

[2] = target: T2, MBP-AtTZF1 RR (Arabidopsis thaliana, UniProt O82307 86-128); experiment: EMSA
T2 chain: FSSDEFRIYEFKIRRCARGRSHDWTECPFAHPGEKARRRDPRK

[3] = target: T3, GST-AtTZF1 full-length (Arabidopsis thaliana, UniProt O82307 1-315); experiment: fluorescence anisotropy
T3 sequence: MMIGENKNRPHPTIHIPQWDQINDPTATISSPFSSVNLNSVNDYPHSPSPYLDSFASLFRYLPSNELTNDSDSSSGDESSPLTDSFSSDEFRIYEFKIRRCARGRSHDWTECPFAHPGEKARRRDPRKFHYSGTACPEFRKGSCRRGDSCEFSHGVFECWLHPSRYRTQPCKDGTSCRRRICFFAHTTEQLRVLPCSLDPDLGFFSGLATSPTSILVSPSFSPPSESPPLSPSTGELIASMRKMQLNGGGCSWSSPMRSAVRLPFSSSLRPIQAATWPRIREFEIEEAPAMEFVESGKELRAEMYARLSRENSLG

[4] = target: T4, MBP-AtTZF1 RR-TZF (Arabidopsis thaliana, UniProt O82307 86-195); experiment: fluorescence anisotropy
T4 sequence: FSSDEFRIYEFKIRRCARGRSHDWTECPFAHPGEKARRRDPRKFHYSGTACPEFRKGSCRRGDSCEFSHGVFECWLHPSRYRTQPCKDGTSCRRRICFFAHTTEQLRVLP

[5] = target: T4, MBP-AtTZF1 RR-TZF; experiment: EMSA
[6] = target: T1, MBP-AtTZF1 TZF; experiment: fluorescence anisotropy

UAUUUAUUAUUUAUUUAUU (ssRNA) [ARE19]
binding result [1]: no binding | binding result [2]: no binding

UAUUUAUUAUUUAUUUAUU (ssRNA) [Fl-ARE19]
Kd [3]: 4550 ± 130 nM | Kd [4]: 410 ± 50 nM

UGUUUGUUGUUUGUUUGUU (ssRNA) [MutG]
binding result [5]: no binding

UUUUUUUUUUUUUUUUUUU (ssRNA) [Fl-polyU]
Kd [3]: 2270 ± 190 nM | Kd [4]: 470 ± 30 nM | Kd [6]: 7370 ± 120 nM
